Reference: the Human Domainome abundance scans (Beltran et al. 2025)

B1: Homeobox protein cut-like 1, residues 548 to 629; numbered along this chain, P39880 (parent)
chain: GEEMDTAEIARQVKEQLIKHNIGQRIFGHYVLGLSQGSVSEILARPKPWNKLTVRGKEPFHKMKQFLSDEQNILALRSIQGR

Variants of: B1
Test: abundance fitness (aPCA) (normalised: wild type 0, dead -1); higher = more abundant; growth selection in yeast, the domain comes from the species named
Conditions: Homo sapiens

Abundance fitness of substitutions, site by site:
H20: C -0.466, L -0.361, W -0.074, D -0.722, P -0.677, R -0.464, I -0.601, T -0.608, S -0.398, N -0.178, V -0.6, F -0.029, A -0.348, K -0.391, G -0.584, E -0.503
L17: Q -0.612, M -0.405, Y -0.842, E -0.613, V -0.665, S -0.635, F -0.808, P -0.538, W -0.808, C -0.493, I -0.358, D -0.774, T -0.518, A -0.724, N -0.696, R -0.609, H -0.939
A7: C -0.081, D -0.136, R -0.093, E -0.029, F -0.053, L -0.082, S -0.09, V -0.121, W -0.143, Y -0.093, Q -0.028, M -0.107, P -0.532, G -0.17, H 0.01, K -0.003
K19: D -0.344, Y -0.242, N -0.216, H 0.029, G -0.513, L -0.201, P -0.763, C -0.363, I -0.244, A -0.171, M -0.293, Q -0.18, W -0.618, E -0.26, V -0.271, R -0.117, F -0.187
I9: G -0.623, A -0.695, F -0.547, Q -0.583, D -0.428, M -0.292, Y -0.495, C -0.459, P -0.605, V -0.103, T -0.267, R -0.69, N -0.643, S -0.672, E -0.517, W -0.82, L -0.13, H -0.56, K -0.508
G23: P 0.08, Y -0.108, H -0.009, V -0.196, M -0.12, R -0.068, K 0.012, F -0.293, L -0.081, A -0.004, N 0.105, D 0.114, Q 0.043, W -0.268, S 0.023, T -0.013, I -0.309, C -0.054
V13: T -0.198, C -0.238, N -0.511, H -0.574, Q -0.574, I -0.102, A -0.415, M -0.263, R -0.586, L -0.423, Y -0.812, G -0.53, S -0.56, E -0.608, D -0.486, K -0.548, W -0.721, P -0.564, F -0.911
A10: H -1.24, M -0.947, W -0.755, Q -0.798, E -0.822, N -0.692, I -0.249, V 0.032, R -0.792, G -0.552, T -0.08, S -0.151, L -0.874, K -0.746, D -0.835, Y -0.863, P -0.744
R25: Q 0.019, G 0.082, N 0.017, P -0.068, A 0.102, S 0.078, I -0.122, L -0.192, V -0.088, K 0.022, T 0.036, Y -0.003, M -0.079, H 0.059, E 0.158, F -0.096, W -0.072, D 0.138
T6: C -0.66, Y -0.901, K -0.81, F -0.822, G -0.946, E -0.921, L -1.02, M -1.01, D -0.859, P -0.385, A -0.697, W -0.884, V -0.839, R -0.896, S -0.468, I -1.14
Q24: G -0.386, D -0.091, M -0.032, C -0.108, Y -0.013, V 0.043, I -0.032, T -0.069, H 0.021, W 0.025, F -0.094, R -0.159, E 0.053, P -0.079, N -0.069, A -0.129, S -0.118
I18: Y 0.008, E 0.064, Q 0.084, M -0.005, A 0.007, W -0.13, V 0, K 0.075, C 0.014, H -0.052, G -0.105, N 0.012, F 0.085, L -0.031, S 0.014
Q16: H -0.113
N21: F -0.534, D -0.03, M -0.378, G 0.025, S -0.084, K -0.055, P -0.72, A -0.151, H 0.009, E -0.04, W -0.759, Q -0.021, C -0.181, I -1.06, T -0.305, Y -0.469, R -0.115, V -0.518
K14: D -0.343, I -0.24, A -0.324, R -0.111, H 0.1, N -0.058, E -0.282, C -0.263, L -0.401, T -0.396, S 0.565
D5: M -0.638, F -0.644, T -0.006, S -0.082, G -0.395, R -0.541, K -0.274, L -0.817, Y -0.561, V -0.537, I -0.689, W -0.782, N -0.076, Q -0.226, P -0.269, H -0.294
E8: A -0.118, S -0.119, H -0.135, K -0.113, F -0.22, C -0.219, L -0.091, N -0.211, I -0.22, P -0.979, V -0.135, Q -0.104, D -0.032, M -0.149, T -0.118, G -0.233, W -0.231, R -0.17
I22: F -0.49, G -0.86, T -0.687, S -0.801, K -0.931, L -0.239, Y -0.916, M -0.612, V -0.071, Q -0.797, D -0.941, C -0.491, P -0.718, N -0.701
E15: V -0.19, R -0.207, F -0.363, T -0.143, N -0.328, A -0.023, G -0.332, L -0.03, C 0.094, S 0.034, I -0.003, K -0.573, Q -0.077, Y -0.091, D -0.211
F27: C -1.03, D -0.862, A -1.01, E -0.906
I26: G -0.547, N -0.261, S -0.14, A -0.056, P -0.517, R -0.401, K -0.152, D 0.023, M -0.082, W -0.083, C -0.058, Y -0.107, L -0.002, V 0.034, F -0.078, H -0.056, T 0.009
R11: M -0.112, Q -0.24, Y -0.249, N -0.205, K 0.069, V -0.311, F -0.243, T -0.131, P -0.646, G -0.18, W -0.506, C -0.327, A -0.157, D -0.274, H -0.102
